Assay results from US20160264953A1.

Columns and labels:
[1] = molecular target: mannose-6-phosphate receptor; test: relative binding to mannose-6-phosphate receptor; method not given
[2] = molecular target: mannose-6-phosphate receptor; test: relative binding to mannose-6-phosphate receptor (Fabrazyme = 100); method not given

Row | Binding to M6Pr (%) [1] | Binding to M6Pr (%) [2] | Molecule
1 | 100% |  | Fabrazyme® (from UniProt P06280 32-429) (enzyme)
2 |  | 130% | recombinant human α-galactosidase-A protein provided herein (FZ2G) (enzyme, N-linked oligosaccharides (including mannose-6-phosphate and bis-mannose-6-phosphate oligosaccharides) at Asn108, Asn161 and Asn184) LDNGLARTPTMGWLHWERFMCNLDCQEEPDSCISEKLFMEMAELMVSEGWKDAGYEYLCIDDCWMAPQRDSEGRLQADPQRFPHGIRQLANYVHSKGLKLGIYADVGNKTCAGFPGSFGYYDIDAQTFADWGVDLLKFDGCYCDSLENLADGYKHMSLALNRTGRSIVYSCEWPLYMWPFQKPNYTEIRQYCNHWRNFADIDDSWKSIKSILDWTSFNQERIVDVAGPGGWNDPDMLVIGNFGLSWNQQVTQMALWAIMAAPLFMSNDLRHISPQAKALLQDKDVIAINQDPLGKQGYQLRQGDNFEVWERPLSGLAWAVAMINRQEIGGPRSYTIAVASLGKGVACNPACFITQLLPVKRKLGFYEWTSRLRSHINPTGTVLLQLENTMQMSLKDLL
